Results as given in the supplement of paper PMC6379048.

Experiments:
Experiment in all cases: Kd (EC50 corrected by depletion factor)
[1] = target: T1, CPSF1 (UniProt Q10570)
T1 sequence: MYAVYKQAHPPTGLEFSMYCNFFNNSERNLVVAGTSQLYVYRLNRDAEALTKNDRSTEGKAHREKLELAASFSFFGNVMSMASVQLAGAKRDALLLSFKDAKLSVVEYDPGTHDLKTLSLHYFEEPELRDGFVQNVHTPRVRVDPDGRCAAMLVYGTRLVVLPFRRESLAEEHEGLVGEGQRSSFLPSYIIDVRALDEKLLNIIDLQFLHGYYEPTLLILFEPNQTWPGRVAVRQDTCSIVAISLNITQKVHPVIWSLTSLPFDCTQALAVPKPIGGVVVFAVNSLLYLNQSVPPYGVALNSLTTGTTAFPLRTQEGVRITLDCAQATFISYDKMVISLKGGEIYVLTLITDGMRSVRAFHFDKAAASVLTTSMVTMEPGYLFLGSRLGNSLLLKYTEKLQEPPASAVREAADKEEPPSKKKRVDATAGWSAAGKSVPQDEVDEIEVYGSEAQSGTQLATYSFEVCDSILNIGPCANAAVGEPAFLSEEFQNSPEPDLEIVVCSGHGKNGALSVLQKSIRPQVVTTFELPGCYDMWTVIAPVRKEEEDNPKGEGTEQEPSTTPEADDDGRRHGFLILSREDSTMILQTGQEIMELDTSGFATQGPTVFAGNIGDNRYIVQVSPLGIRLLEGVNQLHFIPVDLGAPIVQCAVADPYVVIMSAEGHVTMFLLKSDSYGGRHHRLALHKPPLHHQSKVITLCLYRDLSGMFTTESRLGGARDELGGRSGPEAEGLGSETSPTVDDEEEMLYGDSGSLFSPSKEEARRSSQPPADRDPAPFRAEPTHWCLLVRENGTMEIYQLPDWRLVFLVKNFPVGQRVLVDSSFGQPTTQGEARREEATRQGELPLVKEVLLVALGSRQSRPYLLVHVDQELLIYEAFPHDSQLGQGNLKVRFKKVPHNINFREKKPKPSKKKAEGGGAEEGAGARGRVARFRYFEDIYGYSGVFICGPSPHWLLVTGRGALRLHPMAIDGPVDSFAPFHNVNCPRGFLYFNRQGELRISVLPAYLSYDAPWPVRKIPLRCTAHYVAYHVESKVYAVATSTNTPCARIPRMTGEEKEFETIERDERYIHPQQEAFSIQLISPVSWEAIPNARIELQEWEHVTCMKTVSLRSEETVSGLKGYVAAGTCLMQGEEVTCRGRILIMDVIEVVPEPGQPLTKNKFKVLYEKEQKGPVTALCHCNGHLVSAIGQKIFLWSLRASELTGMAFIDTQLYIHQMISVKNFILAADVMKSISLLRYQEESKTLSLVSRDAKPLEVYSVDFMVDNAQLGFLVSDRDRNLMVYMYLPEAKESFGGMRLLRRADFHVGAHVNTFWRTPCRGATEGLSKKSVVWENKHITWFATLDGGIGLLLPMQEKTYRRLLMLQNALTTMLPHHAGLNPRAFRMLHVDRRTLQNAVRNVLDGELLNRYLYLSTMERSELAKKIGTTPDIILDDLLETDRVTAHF
Outline: (§1)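 To obtain EC50, data were fitted with a four-parameter log-logistic model; Kd was then EC50 multiplied by a protein-dependent depletion factor. Beforehand, free RNA oligos (0 nM to 30 μM) were pre-incubated with HEK293-FT lysate (2.5 mg protein/well) for 1 h at 4°C. The lysate then spent 30 min at 4°C with the same 5′-amino-C6 oligos coupled to NHS-Sepharose beads, and bound proteins were quantified by label-free LC-MS/MS, normalised to the control.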

[2] = target: T2, DAZAP1 (UniProt Q96EP5)
T2 sequence: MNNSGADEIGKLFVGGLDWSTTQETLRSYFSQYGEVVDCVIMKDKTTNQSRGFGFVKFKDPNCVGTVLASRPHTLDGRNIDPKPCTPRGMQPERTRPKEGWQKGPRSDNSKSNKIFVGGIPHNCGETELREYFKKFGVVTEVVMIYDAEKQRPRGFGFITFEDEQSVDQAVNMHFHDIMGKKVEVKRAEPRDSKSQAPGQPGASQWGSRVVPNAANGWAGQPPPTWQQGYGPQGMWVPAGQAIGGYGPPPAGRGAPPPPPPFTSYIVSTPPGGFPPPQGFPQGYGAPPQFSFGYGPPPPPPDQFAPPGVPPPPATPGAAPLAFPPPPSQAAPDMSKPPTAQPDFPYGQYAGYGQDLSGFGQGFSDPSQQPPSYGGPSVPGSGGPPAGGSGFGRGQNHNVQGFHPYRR
Outline: as §1

[3] = target: T3, RBMS1 (UniProt P29558)
T3 sequence: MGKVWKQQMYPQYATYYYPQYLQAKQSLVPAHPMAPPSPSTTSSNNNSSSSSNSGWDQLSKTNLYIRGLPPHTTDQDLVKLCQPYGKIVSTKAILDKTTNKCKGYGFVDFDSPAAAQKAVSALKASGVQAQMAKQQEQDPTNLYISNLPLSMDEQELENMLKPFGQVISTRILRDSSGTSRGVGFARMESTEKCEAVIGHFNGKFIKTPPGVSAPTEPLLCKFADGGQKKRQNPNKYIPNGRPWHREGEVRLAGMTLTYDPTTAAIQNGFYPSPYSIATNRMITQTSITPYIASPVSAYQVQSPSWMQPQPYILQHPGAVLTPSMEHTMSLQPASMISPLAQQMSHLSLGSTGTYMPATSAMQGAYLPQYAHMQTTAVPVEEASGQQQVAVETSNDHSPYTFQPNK
Outline: as §1

In the case of UAUUUAU, the Kd [1] is reported as 340 nM, the Kd [2] is reported as 286 nM and the Kd [3] is reported as 114 nM.
Work on AAUAAA yielded a Kd [1] of 6.97 nM, a Kd [2] of 113 nM and a Kd [3] of 156 nM.
